B1: Apt A4 (biotin) (ssDNA)
DNA: ATTGGCACTCCACGCATAGGGTCGACGGTGCCGTCCGTGTTCACACTCCCATTTGGGTGGCCTATGCGTGCTACCGTGAA
B2: Atc-20 (ssDNA)
DNA: CACGCATAGGGTCGACGGTGCCGTCCGTGTTCACACTCCCATTTGGGTGGCCTATGCGTG
B3: Atc-28 (ssDNA)
DNA: CATAGGGTCGACGGTGCCGTCCGTGTTCACACTCCCATTTGGGTGGCCTATG

Target: ASFV p30 (African swine fever virus, UniProt P34204 1-204)
Assay: enzyme-linked aptamer adsorbed assay; […] (binding buffer not stated); […], room temperature, 30 min; […]
Settings: protein: commercial, label: 5'-biotin
[1] = hairpin (M-fold predicted for parent)

Chain of ASFV p30 (P34204 whole entry): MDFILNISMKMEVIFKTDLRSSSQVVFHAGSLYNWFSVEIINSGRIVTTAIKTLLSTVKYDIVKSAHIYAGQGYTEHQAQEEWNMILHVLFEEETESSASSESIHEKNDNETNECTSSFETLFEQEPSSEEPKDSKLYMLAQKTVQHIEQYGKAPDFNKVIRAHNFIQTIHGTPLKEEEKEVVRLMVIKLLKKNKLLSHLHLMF

| Binder | Kd [1] | further results |
| --- | --- | --- |
| B1 |  | Kd (hairpin (M-fold predicted)): 0.17 ± 0.0062 nM |
| B2 | 0.14 ± 0.01 nM |  |
| B3 | 0.153 ± 0.0003 nM |  |
| GGGTCGACGGTGCCGTCCGTGTTCACACTCCCATTTGGGTGGCC (ssDNA) [Atc-34] | 0.266 ± 0.068 nM |  |
| ATTGGCACTCCACGCATCTATGCGTGCTACCGTGAA (ssDNA) [AptNC] |  | binding result: no binding |

Reference: paper PMC10876938, “In vitro SELEX and application of an African swine fever virus (ASFV) p30 protein specific aptamer”
